In the test the target is C-terminally truncated fragment of DdSkp1 (residues 1–122) (Dictyostelium discoideum) (UniProt P52285). In words: AUC.

In turn, “C-terminally truncated fragment of DdSkp1 (residues 1–122) (from UniProt P52285 1-122) (domain or fragment)” yielded a stoichiometry N of 2.

The values above are taken from publication PMC6282176.
